Each block holds one binder with its values, some of them ahead of it.
Columns and labels:
[1] = biological target: T1, human PD-L1 on the cell surface (SP2/0 PD-L1 cells stably expressing human PD-L1); also human tumor cell lines … (human, UniProt Q9NZQ7 19-290); experiment: flow cytometry on SP2/0 PD-L1 cells pre-incubated with biotin-huPD-1-hFc; bound antibody detected with anti-human kappa-APC
T1 construct: whole, on cells; also called membrane huPD-L1; cell surface PD-L1

[2] = biological target: T1, human PD-L1 on the cell surface (SP2/0 …); experiment: flow cytometry, displacement of pre-bound biotin-huPD-1-hFc from SP2/0 PD-L1 cells, remaining PD-1 detected with streptavidin-FITC
[3] = biological target: T2, Mouse PD-L1-his (50010-MO8H, Sino Biological) (mouse, UniProt Q9EP73 19-238); experiment: ELISA, hu1F11 on soluble mouse PD-L1, luminescence as percent of the highest value
T2 construct: Bought reagent; also called murine PD-L1; soluble mouse PD-L1; not shown: His tag
From the text: Y-axis is the relative luminescence index generated by antibody/antigen binding and x-axis is the logarithm of antibody concentrations (ng/ml).

[4] = biological target: T2, Mouse PD-L1-his (50010-MO8H, Sino …); experiment: ELISA, m1F11 on recombinant mouse PD-L1, luminescence as percent of the highest value
[5] = biological target: T3, Human PD-L1-hFc (B3040, Biointron Biological Inc.) (human, UniProt Q9NZQ7 19-238, limits assumed); experiment: ELISA, recombinant human PD-L1, APC-labeled m1F11; recombinant human PD-L1, ELISA
T3 construct: also called recombinant human PD-L1-Fc; hu-PD-L1-Fc; not shown: human Fc of the bought fusion

[6] = biological target: T1, human PD-L1 on the cell surface (SP2/0 …); experiment: flow cytometry, APC-labeled m1F11 on SP2/0 PD-L1 cells
[7] = biological target: T4, Cynomolgus PD-L1-his (90251-C08H, Sino Biological) (cynomolgus, UniProt G7PSE7 19-238); experiment: ELISA, recombinant cynomolgus PD-L1, APC-labeled m1F11
T4 construct: Bought reagent; also called monkey PD-L1; soluble monkey PD-L1
T4 sequence (G7PSE7 entry or part of it C08H C08H limits assumed): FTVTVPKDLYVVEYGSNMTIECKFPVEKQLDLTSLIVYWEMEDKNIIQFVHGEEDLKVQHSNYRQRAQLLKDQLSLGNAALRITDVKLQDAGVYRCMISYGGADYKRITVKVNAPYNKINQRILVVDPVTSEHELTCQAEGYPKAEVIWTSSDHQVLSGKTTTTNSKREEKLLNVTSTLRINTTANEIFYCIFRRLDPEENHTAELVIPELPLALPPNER

T3 sequence (Q9NZQ7 19-238 limits assumed): as the sequence (G7PSE7 entry or part of it C08H C08H limits assumed) above, with T33A, S34A, N62S, Q68R, R82Q, L173F, A185T, I192T, L215H counted along it

EC50 (read off the curve) [1]: ~0.3 µg/mL | IC50 (read off the curve) [2]: ~0.9 µg/mL
B1: humanized 1F11 (hu1F11) (antibody, human IgG1, kappa, N297A, V domains shown)
VH: QVQLQQSGAELVKPGASVKLSCKTSGFTFSSSYISWVKQSSGQGLEWIAWIYAGTGGTGYNQKFTGRASITVDTSTSTAYMQLSSLTSEDTAIYYCAISASYRYDDLFAYWGQGTLVTVSS
VL: QIVLTQSPASVSASPGEKVTITCSASSSVSSVHWYQQKSGTSPKRWIYDTSKLASGVPARFSGSGSGTSYSLTISSMETEDVATYYCQQWNSNPPTFGTGTKLEIKR
notes: Expressed in 293T cells; also called huIF11; humanized IF11
binding result [3]: no binding (tested: log 3.6 on the axis (about 4000 ng/ml))

EC50 [5]: 0.0393 µg/mL | EC50 [6]: 0.0629 µg/mL | EC50 [7]: 0.0464 µg/mL
B2: m1F11 (murine anti-PD-L1 antibody from hybridoma clone 1F11) (antibody, V domains shown)
VH: QGQMQQSGAELVKPGASVKLSCKTSGFTFSSSYISWLKQKSGQSLEWIAWIYAGTGGTGYNQKFTGKAQLTVDTSSSTAYMQFSSLTTEDSAIYYCAISASYRYDDLFAYWGQGTLVTVSA
VL: QIVLTQSPAIMSASPGEKVTMTCSASSSVSSMHWYQQKSGTSPKRWIYDTSKLASGVPARFSGSGSGTSYSLTISSMETEDAATYYCQQWNSNPPTFGAGTKLELK
notes: Recombinant murine antibody expressed in CHO-S cells and used APC-labeled in the assays; also called 1F11-APC; murine version 1F11
binding result [4]: no binding (tested: log 3.9 on the axis (about 8000 ng/ml))

From patent US20220251211A1 (BEIJING SINOTAU BIO PHARMACEUTICALS TECHNOLOGY, published 2022)
